Measured values as given in PMC8254419.

Molecular target: Aβ_(1-42)
Assay: thioflavin T fluorescence aggregation kinetics

k+k2 (product of the rate constants of elongation and secondary nucleation): 1e+11 M^−3s^−2
Substance: Aβ_(1-42) (peptide)
